Data published in patent US20100261218A1.

T1: Synechocystis sp. PCC6803 fatty acid synthesis acyl carrier protein (SACP), P20804
T1 chain: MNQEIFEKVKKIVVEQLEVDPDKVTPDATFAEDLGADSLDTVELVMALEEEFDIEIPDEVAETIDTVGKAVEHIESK


Tests used:
[1] = target: N. punctiforme ATCC29133 PKS aryl carrier protein (ArCP) from HetM of glycolipid synthesis (NpArCP)
[2] = target: Nostoc punctiforme NRPS peptidyl carrier protein (Nppcp), C-terminal NosA PCP of the putative nostopeptolide cluster
[3] = target: T1, Synechocystis sp. PCC6803 fatty acid …
[4] = target: Bacillus brevis ATCC8185 NRPS peptidyl carrier protein involved in tyrocidine biosynthesis (TycPCP)
[5] = target: N. punctiforme ATCC29133 PKS acyl carrier protein of nostopeptolide biosynthesis (NpACP)

Protein | pantetheinylation of the carrier protein (30 min in vitro assay, ESI-MS) [1] | pantetheinylation of the carrier protein (30 min in vitro assay, ESI-MS) [2] | phosphopantetheinylation of the carrier protein (10 min in vitro assay, ESI-MS, +340 Da) [3] | percent of carrier protein phosphopantetheinylated (30 min in vitro assay, ESI-MS) [4] | phosphopantetheinylation of the carrier protein (30 min in vitro assay, ESI-MS) [5] | phosphopantetheinylation of the carrier protein (30 min in vitro assay, ESI-MS) [1]
N. sp. heterocyst carrier protein synthase (NhcS), phosphopantetheinyl transferase from Nodularia spumigena NSOR10 (protein) MTALNHLWLPVPTNLTLLPNDVHIWRIHLDVPEAQQQNLLATLSGDELTRANRFHFQEHRQRFIAGRGILRSILGSYLGIEPQRVLFDYQERGKPILADSLAKSGLWFNLSHSQGLALCAVNYHNRIGIDLEYIRRMSDVEALAKRFFLPREYDVVRSLSDHQQQEIFFRYWTCKEAYLKATGEGLAQLEQVEVLLNPTEPAQLQTSESWSLFELRAAEDYFAAVVVEGSGCNLQCWQY | The conversion of the apo-ArCP (15.75 kDa) to the holo-ArCP (16.05 kDa) is seen | Nppcp was pantetheinylated | – | – | – | –
Synechocystis sp. PCC6803 phosphopantetheinyl transferase (Sppt) (protein) MLPQPQIWLCPTDRPLIPGYQALLSSEEMARGERYQRPQDKQRFLTMRLALRILLARQLDCLPQQLQFTYGPQGKPELVDRERRSPWFNVAHSGNYGLIGLSTEGEIGVDLQIMLPKPHYLKLAKRFFAPQEVQQLESLEGEKRTKLFYQLWTAKEAFLKATGKGISGGLNQVIPDENLAKYQYLPDSGDTNHWRLSSQPLLADQGSNDNYWMAIAWCTNEVNQVESNYLPNIQPFQWPRNLDSLP | – | – | After in vitro incubation with Sppt, SACP showed an increased abundance of phosphopantetheinylated carrier protein | approximately 54% of the P. aeruginosa PAO1 NRPS TycPCP was phosphopantetheinylated by Sppt | Phosphopantetheinylated NpACP was not reproducibly detected after incubation with Sppt | Sppt was unable to phosphopantetheinylate the N. punctiforme ATCC29133 NpArCP as shown by mass spectrometry
